According to patent US9205132B2, “Method of lowering mortality” (CORTHERA, INC., priority 2008, dated 2015):
Marks after values point to notes of the source that are not given here.

Tested on: patients with acute heart failure (AHF)
Test: Safety endpoints (adverse events, blood pressure, renal impairment, clinical laboratory), Pre-RELAX-AHF trial
Assay type: in vivo, human
Details: for change from baseline in mean hematocrit at 48 hours: described as transient decrease
Experimental: Study Procedures. The study was approved by the relevant ethics committees, institutional review hoards and regulatory authorities, and conducted under the International Conference on Harmonization Good Clinical Practice guidelines. All patients provided informed written consent prior to participation. […] The placebo used for the study was the same solution as the diluent used to prepare the 100 μg/kg/day dose. The randomization ratio was 3:2:2:2:2, respectively, Relaxin (Corthera, San Mateo, Calif.) was manufactured using recombinant techniques and was identical to the naturally-occurring peptide hormone. By protocol, the study drug infusion was to be terminated if the patient's SBP was reduced to <100 mmHg or by >40 mmHg compared to baseline in two successive measurements, 15 minutes apart. Investigators were not prohibited from utilizing any standard medication, thought necessary to treat patients enrolled in the study, including additional vasodilators, following a 4-hour washout period during which time IV vasodilators, IV pure inotropes and meals were withheld, hemodynamic, renal, and clinical responses to 48 hours of study drug infusion were assessed.
Study Endpoints. […] 4.) Length of initial hospital stay.

Relaxin
Patients with any AE from Day 15 to Day 30, n (%) (10 mcg/kg/d IV 48 h): 4 (10.0%) n (%)
Patients with any SAEs to Day 30, n (%) (10 mcg/kg/d IV 48 h): 7 (17.5%) n (%)
Patients with any adverse events to Day 30, n (%) (10 mcg/kg/d IV 48 h): 32 (80.0%) n (%)
Protocol-specified study drug discontinuation due to blood pressure reduction (10 mcg/kg/d IV 48 h): 20.0%
Renal impairment: Patients with ≧0.3 mg/dL increase in creatinine at Day 5 (10 mcg/kg/d IV 48 h): 3 (7.9%) n (%)
Renal impairment: Patients with ≧0.3 mg/dL increase in creatinine at Day 5 and Day 14 (10 mcg/kg/d IV 48 h): 3 (7.5%) n (%)
Renal impairment: Patients with ≧25% increase in creatinine at Day 5 (10 mcg/kg/d IV 48 h): 4 (10.0%) n (%)
SAE to Day 30: Acute respiratory failure, n (%) (10 mcg/kg/d IV 48 h): 0 n (%)
SAE to Day 30: Bronchitis, n (%) (10 mcg/kg/d IV 48 h): 0 n (%)
SAE to Day 30: Cardiac failure, n (%) (10 mcg/kg/d IV 48 h): 2 (5.0%) n (%)
SAE to Day 30: Cerebrovascular accident, n (%) (10 mcg/kg/d IV 48 h): 0 n (%)
SAE to Day 30: Hypotension, n (%) (10 mcg/kg/d IV 48 h): 0 n (%)
SAE to Day 30: Noncardiac chest pain, n (%) (10 mcg/kg/d IV 48 h): 2 (5.0%) n (%)
SAE to Day 30: Pneumonia, n (%) (10 mcg/kg/d IV 48 h): 0 n (%)
SAE to Day 30: Renal failure, n (%) (10 mcg/kg/d IV 48 h): 0 n (%)
SAE to Day 30: Urinary retention, n (%) (10 mcg/kg/d IV 48 h): 0 n (%)
SAE to Day 30: Urinary tract infection, n (%) (10 mcg/kg/d IV 48 h): 0 n (%)
SAE to Day 30: Ventricular fibrillation, n (%) (10 mcg/kg/d IV 48 h): 1 (2.5%) n (%)
mean change in creatinine from baseline at Day 14 (10 mcg/kg/d IV 48 h): 0.07 ± 0.24 mg/dL
patients requiring treatment of blood pressure reduction (10 mcg/kg/d IV 48 h): None of the patients
proportion of patients at Day 14 with an increase in creatinine of 0.3 mg/dL or more (10 mcg/kg/d IV 48 h): 19.4%
change from baseline in mean hematocrit at 48 hours (10 mcg/kg/d IV 48 h): 0.57%
Patients with any AE from Day 15 to Day 30, n (%) (30 mcg/kg/d IV 48 h): 5 (11.9%) n (%)
Patients with any SAEs to Day 30, n (%) (30 mcg/kg/d IV 48 h): 7 (16.7%) n (%)
Patients with any adverse events to Day 30, n (%) (30 mcg/kg/d IV 48 h): 25 (59.5%) n (%)
Protocol-specified study drug discontinuation due to blood pressure reduction (30 mcg/kg/d IV 48 h): 9.5%
Renal impairment: Patients with ≧0.3 mg/dL increase in creatinine at Day 5 (30 mcg/kg/d IV 48 h): 7 (18.9%) n (%)
Renal impairment: Patients with ≧0.3 mg/dL increase in creatinine at Day 5 and Day 14 (30 mcg/kg/d IV 48 h): 3 (7.3%) n (%)
Renal impairment: Patients with ≧25% increase in creatinine at Day 5 (30 mcg/kg/d IV 48 h): 9 (22.0%) n (%)
SAE to Day 30: Acute respiratory failure, n (%) (30 mcg/kg/d IV 48 h): 0 n (%)
SAE to Day 30: Bronchitis, n (%) (30 mcg/kg/d IV 48 h): 1 (2.4%) n (%)
SAE to Day 30: Cardiac failure, n (%) (30 mcg/kg/d IV 48 h): 1 (2.4%) n (%)
SAE to Day 30: Cerebrovascular accident, n (%) (30 mcg/kg/d IV 48 h): 2 (4.8%) n (%)
SAE to Day 30: Hypotension, n (%) (30 mcg/kg/d IV 48 h): 0 n (%)
SAE to Day 30: Noncardiac chest pain, n (%) (30 mcg/kg/d IV 48 h): 0 n (%)
SAE to Day 30: Pneumonia, n (%) (30 mcg/kg/d IV 48 h): 3 (7.1%) n (%)
SAE to Day 30: Renal failure, n (%) (30 mcg/kg/d IV 48 h): 1 (2.4%) n (%)
SAE to Day 30: Urinary retention, n (%) (30 mcg/kg/d IV 48 h): 0 n (%)
SAE to Day 30: Urinary tract infection, n (%) (30 mcg/kg/d IV 48 h): 1 (2.4%) n (%)
SAE to Day 30: Ventricular fibrillation, n (%) (30 mcg/kg/d IV 48 h): 0 n (%)
mean change in creatinine from baseline at Day 14 (30 mcg/kg/d IV 48 h): 0.13 ± 0.49 mg/dL
mean decrease in SBP compared to placebo during infusion (30 mcg/kg/d IV 48 h): 3-4 mmHg
patients requiring treatment of blood pressure reduction (30 mcg/kg/d IV 48 h): None of the patients
proportion of patients at Day 14 with an increase in creatinine of 0.3 mg/dL or more (30 mcg/kg/d IV 48 h): 26.3%
change from baseline in mean hematocrit at 48 hours (30 mcg/kg/d IV 48 h): 1.45%
Patients with any AE from Day 15 to Day 30, n (%) (100 mcg/kg/d IV 48 h): 2 (5.3%) n (%)
Patients with any SAEs to Day 30, n (%) (100 mcg/kg/d IV 48 h): 3 (7.9%) n (%)
Patients with any adverse events to Day 30, n (%) (100 mcg/kg/d IV 48 h): 24 (63.2%) n (%)
Protocol-specified study drug discontinuation due to blood pressure reduction (100 mcg/kg/d IV 48 h): 7.9%
Renal impairment: Patients with ≧0.3 mg/dL increase in creatinine at Day 5 (100 mcg/kg/d IV 48 h): 9 (26.5%) n (%)
Renal impairment: Patients with ≧0.3 mg/dL increase in creatinine at Day 5 and Day 14 (100 mcg/kg/d IV 48 h): 4 (10.8%) n (%)
Renal impairment: Patients with ≧25% increase in creatinine at Day 5 (100 mcg/kg/d IV 48 h): 11 (29.7%) * n (%)
SAE to Day 30: Acute respiratory failure, n (%) (100 mcg/kg/d IV 48 h): 1 (2.6%) n (%)
SAE to Day 30: Bronchitis, n (%) (100 mcg/kg/d IV 48 h): 0 n (%)
SAE to Day 30: Cardiac failure, n (%) (100 mcg/kg/d IV 48 h): 0 n (%)
SAE to Day 30: Cerebrovascular accident, n (%) (100 mcg/kg/d IV 48 h): 0 n (%)
SAE to Day 30: Hypotension, n (%) (100 mcg/kg/d IV 48 h): 0 n (%)
SAE to Day 30: Noncardiac chest pain, n (%) (100 mcg/kg/d IV 48 h): 0 n (%)
SAE to Day 30: Pneumonia, n (%) (100 mcg/kg/d IV 48 h): 0 n (%)
SAE to Day 30: Renal failure, n (%) (100 mcg/kg/d IV 48 h): 0 n (%)
SAE to Day 30: Urinary retention, n (%) (100 mcg/kg/d IV 48 h): 2 (5.3%) n (%)
SAE to Day 30: Urinary tract infection, n (%) (100 mcg/kg/d IV 48 h): 0 n (%)
SAE to Day 30: Ventricular fibrillation, n (%) (100 mcg/kg/d IV 48 h): 0 n (%)
mean change in creatinine from baseline at Day 14 (100 mcg/kg/d IV 48 h): 0.08 ± 0.39 mg/dL
mean decrease in SBP compared to placebo during infusion (100 mcg/kg/d IV 48 h): 3-4 mmHg
proportion of patients at Day 14 with an increase in creatinine of 0.3 mg/dL or more (100 mcg/kg/d IV 48 h): 24.2%
change from baseline in mean hematocrit at 48 hours (100 mcg/kg/d IV 48 h): 0.25%
Patients with any AE from Day 15 to Day 30, n (%) (250 mcg/kg/d IV 48 h): 3 (6.1%) n (%)
Patients with any SAEs to Day 30, n (%) (250 mcg/kg/d IV 48 h): 8 (16.3%) n (%)
Patients with any adverse events to Day 30, n (%) (250 mcg/kg/d IV 48 h): 25 (51.0%) n (%)
Protocol-specified study drug discontinuation due to blood pressure reduction (250 mcg/kg/d IV 48 h): 16.3%
